Data set [1] concerns the molecule itself. Put plainly: native gel or EMSA; 4-16% Native-PAGE gel stained with coomassie. A general note: A gel shift assay detects complexes by their altered migration in electrophoresis.
In data set [2] the target is taxol-stabilised microtubules. The data set can be described thus: co-sedimentation; microtubule sedimentation, 15 nM tetrameric hKif15 with 30 nM dimeric hTpx2, AMP-PNP, 35 mM sodium phosphate buffer pH 7.0, 1 mM MgCl2, 1 mM EGTA, 1 mM DTT, 20 min at room temperature. The following applies: both partners purified.
Data set [3] deals with the molecule itself. Put plainly: glycerol gradient ultracentrifugation; 5-40% glycerol gradient, 35 mM sodium phosphate buffer, 300 mM NaCl, 1 mM DTT, 4°C, 15 hr; tetramer to dimers.
Data set [4] concerns the molecule itself. Put plainly: glycerol gradient ultracentrifugation; 5-40% glycerol gradient, 35 mM sodium phosphate buffer, 0-150 mM NaCl, 1 mM DTT, 4°C, 15 hr; apparent sedimentation coefficients.

As usually defined, the stoichiometry N is a count of units in the complex or per binding partner.

taxol-stabilised microtubules, sequence (chain, as listed by the source, chain 1 of 2): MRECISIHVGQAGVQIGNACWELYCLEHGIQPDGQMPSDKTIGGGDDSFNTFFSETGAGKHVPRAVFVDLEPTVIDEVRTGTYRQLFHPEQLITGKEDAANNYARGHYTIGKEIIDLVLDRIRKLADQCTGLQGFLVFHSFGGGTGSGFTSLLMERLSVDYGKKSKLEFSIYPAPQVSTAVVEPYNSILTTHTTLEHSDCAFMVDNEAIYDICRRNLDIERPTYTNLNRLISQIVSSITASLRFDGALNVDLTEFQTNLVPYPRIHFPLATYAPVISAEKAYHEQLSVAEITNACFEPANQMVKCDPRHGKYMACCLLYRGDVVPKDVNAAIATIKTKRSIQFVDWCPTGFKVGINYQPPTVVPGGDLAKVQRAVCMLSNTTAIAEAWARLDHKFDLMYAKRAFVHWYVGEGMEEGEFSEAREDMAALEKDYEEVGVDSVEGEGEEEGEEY
taxol-stabilised microtubules, sequence (chain, as listed by the source, chain 2 of 2): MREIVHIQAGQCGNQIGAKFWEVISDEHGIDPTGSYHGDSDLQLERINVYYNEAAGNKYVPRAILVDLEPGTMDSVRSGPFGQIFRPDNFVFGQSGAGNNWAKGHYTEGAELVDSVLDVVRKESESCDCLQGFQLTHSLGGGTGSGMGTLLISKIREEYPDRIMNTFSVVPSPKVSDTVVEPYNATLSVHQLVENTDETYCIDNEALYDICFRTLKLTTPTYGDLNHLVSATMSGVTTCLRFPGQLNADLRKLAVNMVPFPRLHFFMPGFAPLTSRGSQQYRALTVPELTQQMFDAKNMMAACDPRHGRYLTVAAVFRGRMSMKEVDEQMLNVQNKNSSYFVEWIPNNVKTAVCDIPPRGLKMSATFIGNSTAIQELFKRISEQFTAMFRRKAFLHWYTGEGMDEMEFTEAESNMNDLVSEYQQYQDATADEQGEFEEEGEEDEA

B1: Full-length human His6-Kif15 (natural protein, UniProt Q9NS87 1-1388, looked up)
chain: MAPGCKTELRSVTNGQSNQPSNEGDAIKVFVRIRPPAERSGSADGEQNLCLSVLSSTSLRLHSNPEPKTFTFDHVADVDTTQESVFATVAKSIVESCMSGYNGTIFAYGQTGSGKTFTMMGPSESDNFSHNLRGVIPRSFEYLFSLIDREKEKAGAGKSFLCKCSFIEIYNEQIYDLLDSASAGLYLREHIKKGVFVVGAVEQVVTSAAEAYQVLSGGWRNRRVASTSMNRESSRSHAVFTITIESMEKSNEIVNIRTSLLNLVDLAGSERQKDTHAEGMRLKEAGNINRSLSCLGQVITALVDVGNGKQRHVCYRDSKLTFLLRDSLGGNAKTAIIANVHPGSRCFGETLSTLNFAQRAKLIKNKAVVNEDTQGNVSQLQAEVKRLKEQLAELASGQTPPESFLTRDKKKTNYMEYFQEAMLFFKKSEQEKKSLIEKVTQLEDLTLKKEKFIQSNKMIVKFREDQIIRLEKLHKESRGGFLPEEQDRLLSELRNEIQTLREQIEHHPRVAKYAMENHSLREENRRLRLLEPVKRAQEMDAQTIAKLEKAFSEISGMEKSDKNQQGFSPKAQKEPCLFANTEKLKAQLLQIQTELNNSKQEYEEFKELTRKRQLELESELQSLQKANLNLENLLEATKACKRQEVSQLNKIHAETLKIITTPTKAYQLHSRPVPKLSPEMGSFGSLYTQNSSILDNDILNEPVPPEMNEQAFEAISEELRTVQEQMSALQAKLDEEEHKNLKLQQHVDKLEHHSTQMQELFSSERIDWTKQQEELLSQLNVLEKQLQETQTKNDFLKSEVHDLRVVLHSADKELSSVKLEYSSFKTNQEKEFNKLSERHMHVQLQLDNLRLENEKLLESKACLQDSYDNLQEIMKFEIDQLSRNLQNFKKENETLKSDLNNLMELLEAEKERNNKLSLQFEEDKENSSKEILKVLEAVRQEKQKETAKCEQQMAKVQKLEESLLATEKVISSLEKSRDSDKKVVADLMNQIQELRTSVCEKTETIDTLKQELKDINCKYNSALVDREESRVLIKKQEVDILDLKETLRLRILSEDIERDMLCEDLAHATEQLNMLTEASKKHSGLLQSAQEELTKKEALIQELQHKLNQKKEEVEQKKNEYNFKMRQLEHVMDSAAEDPQSPKTPPHFQTHLAKLLETQEQEIEDGRASKTSLEHLVTKLNEDREVKNAEILRMKEQLREMENLRLESQQLIEKNWLLQGQLDDIKRQKENSDQNHPDNQQLKNEQEESIKERLAKSKIVEEMLKMKADLEEVQSALYNKEMECLRMTDEVERTQTLESKAFQEKEQLRSKLEEMYEERERTSQEMEMLRKQVECLAEENGKLVGHQNLHQKIQYVVRLKKENVRLAEETEKLRAENVFLKEKKRSES
notes: Kinesin-12 Kif15 (hKlp2), human; complete ORF amplified from a cDNA library of hTERT-RPE1 cells; predicted molecular weight of His6-hKif15 164.8 kDa; A TEV cleavage site lies between His6 and the ORF (His6/TEV element of p11 in a modified pIEx/Bac1 vector); no cleavage is described; Tetramer at physiological ionic strength, dimer at 300 mM NaCl; also called hKif15; His6-hKif15; source: insect SF9 …
For the molecule B1, the “stoichiometry N” value in data set [1] stood at 4; in data set [3], 2. Moreover, in data set [2], the “KD with 30 nM dimeric hTpx2” value was found to be 490 nM.

B2: Full-length human His6-Kif15-eGFP (natural protein, UniProt Q9NS87 1-1388, looked up)
chain: MAPGCKTELRSVTNGQSNQPSNEGDAIKVFVRIRPPAERSGSADGEQNLCLSVLSSTSLRLHSNPEPKTFTFDHVADVDTTQESVFATVAKSIVESCMSGYNGTIFAYGQTGSGKTFTMMGPSESDNFSHNLRGVIPRSFEYLFSLIDREKEKAGAGKSFLCKCSFIEIYNEQIYDLLDSASAGLYLREHIKKGVFVVGAVEQVVTSAAEAYQVLSGGWRNRRVASTSMNRESSRSHAVFTITIESMEKSNEIVNIRTSLLNLVDLAGSERQKDTHAEGMRLKEAGNINRSLSCLGQVITALVDVGNGKQRHVCYRDSKLTFLLRDSLGGNAKTAIIANVHPGSRCFGETLSTLNFAQRAKLIKNKAVVNEDTQGNVSQLQAEVKRLKEQLAELASGQTPPESFLTRDKKKTNYMEYFQEAMLFFKKSEQEKKSLIEKVTQLEDLTLKKEKFIQSNKMIVKFREDQIIRLEKLHKESRGGFLPEEQDRLLSELRNEIQTLREQIEHHPRVAKYAMENHSLREENRRLRLLEPVKRAQEMDAQTIAKLEKAFSEISGMEKSDKNQQGFSPKAQKEPCLFANTEKLKAQLLQIQTELNNSKQEYEEFKELTRKRQLELESELQSLQKANLNLENLLEATKACKRQEVSQLNKIHAETLKIITTPTKAYQLHSRPVPKLSPEMGSFGSLYTQNSSILDNDILNEPVPPEMNEQAFEAISEELRTVQEQMSALQAKLDEEEHKNLKLQQHVDKLEHHSTQMQELFSSERIDWTKQQEELLSQLNVLEKQLQETQTKNDFLKSEVHDLRVVLHSADKELSSVKLEYSSFKTNQEKEFNKLSERHMHVQLQLDNLRLENEKLLESKACLQDSYDNLQEIMKFEIDQLSRNLQNFKKENETLKSDLNNLMELLEAEKERNNKLSLQFEEDKENSSKEILKVLEAVRQEKQKETAKCEQQMAKVQKLEESLLATEKVISSLEKSRDSDKKVVADLMNQIQELRTSVCEKTETIDTLKQELKDINCKYNSALVDREESRVLIKKQEVDILDLKETLRLRILSEDIERDMLCEDLAHATEQLNMLTEASKKHSGLLQSAQEELTKKEALIQELQHKLNQKKEEVEQKKNEYNFKMRQLEHVMDSAAEDPQSPKTPPHFQTHLAKLLETQEQEIEDGRASKTSLEHLVTKLNEDREVKNAEILRMKEQLREMENLRLESQQLIEKNWLLQGQLDDIKRQKENSDQNHPDNQQLKNEQEESIKERLAKSKIVEEMLKMKADLEEVQSALYNKEMECLRMTDEVERTQTLESKAFQEKEQLRSKLEEMYEERERTSQEMEMLRKQVECLAEENGKLVGHQNLHQKIQYVVRLKKENVRLAEETEKLRAENVFLKEKKRSES
notes: Kinesin-12 Kif15 (hKlp2), human; complete ORF from a cDNA library of hTERT-RPE1 cells, eGFP inserted via AscI/NotI behind the ORF; His6/TEV element before the ORF as in m1; also called hKif15-eGFP; His6-hKif15-eGFP; source: insect SF9 cells (baculovirus), purified (SP-sepharose cation exchange, then Talon/Co-NTA); not shown: His6, N-terminal, kept; eGFP, C-terminal, kept
In the case of B2, the “stoichiometry N” value in data set [4] is 4.

The record behind these values is paper PMC3965211, “The Kinesin-12 Kif15 is a processive track-switching tetramer” (eLife, 2014).
